Measured values published in patent publication US11110182B2, “Multifunctional RNA nanoparticles and methods for treating cancer and therapeutic resistant cancer” (University of Cincinnati, priority 2016, dated 2021).

How the values were obtained:
[1] = Biosafety during therapeutic treatment (body weight, organ H&E histopathology); assay type: in vivo, athymic nude mice
Protocol: FIG. 12A) During therapeutic treatment to orthotopic xenograft mouse models, the body weights of mice were recorded every three days. FIG. 12B) After therapeutic treatment, major organs were excised, fixed in 10% neutral formalin buffer, embedded in paraffin, sectioned and examined for histopathology by H&E staining. Scale bar: 100 μm.
Migration and metastasis assay. The 8-μm-pore-size polycarbonate membrane, which separates the two chambers of a 6.5-mm Transwell (Costar), was coated with or without 1:8 DMEM-diluted Matrigel (Corning). […] Cells at top side of membranes were removed completely, and cells at the bottom side were examined with an Olympus SZX12 microscope and counted. • Mammosphere culture and breast cancer stem cell analyses. […] After treatment with or without 1 μM 4-OHT for 7 days, mammosphere formation was recorded using an Axiovert S100 TV inverted microscope (Zeiss). […] After resuspension with 0.5 mL PBS buffer, CD44^+/CD24^−/low cell population was analyzed by flow cytometry. • Orthotopic xenograft breast tumor mouse model, in vivo imaging and anti-tumor therapy. […] The tumor volume was monitored every 3 days, and tumor size was calculated using the formula: volume=0.5×(width)^2×(length). […]

MED1 = MED1 protein level by western blots in MCF-7/TAM cells; assay type: cell-based, human; conditions: 10 μg/mL, 48 h
Protocol: FIGS. 10A-10D. Evidence that pRNA-HER2apt-siMED1 nanoparticles silenced MED1 expression and sensitized two other HER2+ breast cancer cells to tamoxifen treatment. FIG. 10A) Two HER2-overexpressing breast cancer cell lines MCF7/TAM and FIG. 10B) MCF7/HER2, were treated with 10 μg/mL pRNA-HER2apt-siMED1 nanoparticles or scramble control for 48 h, and then MED1 protein level was determined using western blots. FIG. 10C) MCF7/TAM and FIG. 10D) MCF7/HER2 cells were treated with 10 μg/mL pRNA nanoparticles and/or 1 μM tamoxifen (TAM) as indicated for 48 h, and then cell growth was determined using an MTT assay.
Next, the ability of pRNA-HER2apt-siMED1 nanoparticles to silence the expression of MED1 in BT474 and MDA-MB-231 human breast cancer cells was examined. Using real-time PCR analyses, a significant depletion of nearly 70% of MED1 mRNA in BT474 cells after pRNA-HER2apt-siMED1 but not pRNA-HER2apt^mut-siMED1 treatment was found (FIG. 3A).

B1: pRNA-HER2apt-siMED1: 3-WJ pRNA nanoparticle bearing a HER2-targeting RNA aptamer and two different MED1 siRNAs; strands p1 SEQ ID NO: 3, p2 SEQ ID NO: 4 (nucleic acid)
chain 1: GGACAGUGAAAGUGAGUCAAAGGAUCAAUCAUGGCCAAAGAUGUUACUUUGAGAGCCUU
chain 2: GGCUCUCAAAGUAACAUCUAAGGCCAUGUGUAUGUGGGGGGAGGACGAUGCGGUCUGCUGUGCUUGAUAUGCCCCAGACGACUCGCCCCCCACAUACUUUGUUGAUCCAAUGACUCACUUUCACUGUCCUU
modifications: 2'-F modification; third strand may lack entry; pRNA-HER2apt-siMED1, p1; pRNA-HER2apt-siMED1, p2
histopathology of heart, liver, spleen, lung and kidney ([1]; H&E staining after therapeutic treatment): no evidence of any apparent organ injury or disturbance
mouse body weight ([1]; entire treatment period, systemic administration): no significant reduction
MED1 silencing (MED1): confirmed
